Source: patent publication US20250332297A1, “DLL3-SPECIFIC BINDING CONSTRUCTS AND THEIR USE IN RADIOTHERAPY” (MOLECULAR PARTNERS AG, priority 2024, published 2025)

Experiments:
[1] = system: NCI-H82 tumor model; experiment: Biodistribution of radio-labelled DARPin conjugates in NCI-H82 tumor model; conditions: mouse, in vivo, iv, 0.01 mg/kg
Description: NCI-H82 tumor model. R2G2 mice were purchased from Envigo. All studies were conducted under the approval of the institutional IACUC committee. Animals were maintained under specific-pathogen-free (SPF) conditions with daily cycles of light and darkness (12 h/12 h), in line with ethical guidelines. No manipulations were performed during the first 5 days after arrival, to allow the animals to acclimatize to the new environment. All mice were monitored daily for assessment of physical condition and general well-being. NCI-H82 cells were purchased from ATCC (Catalog No. HTB-175). Solid xenografts were established by subcutaneous (SQ) injection of NCI-H82 cells in RPMI media mixed 1:1 with Corning® Matrigel® basement membrane matrix (GFR; Corning, Cat No 354230.). Cells were quantified using Countess cell counter. Each mouse was injected SQ with 5×10^6 NCI-H82 cells in 100 μL RPMI/GFR-Matrigel into the right flank of each mouse. Tumor volumes were estimated three times per week through calipering, according to the formula: volume=0.5×length×width^2 and grown until they reached 200-300 mm^3. Tumor-associated antigen level expressed in tumors, tumor vascularization profile and DLL3 soluble form in mouse serum was tested.
Biodistribution study. […] Radio-labeled (Pb-212) DARPin conjugates were then injected at 0.01 mg/kg (10 μCi DARPin conjugates) into the tail vein of R2G2 mice (females) xenografted subcutaneously (at age of about 7 weeks) with NCI-H82 cells (5 million cells, growth factor reduced Matrigel) and bearing tumors (5-10 mm in diameter). […] Biodistribution was monitored at 4 h and 24h post-injection. Mice were euthanized by CO2 inhalation and cervical dislocation. Blood, spleen, kidneys, liver and tumor were extracted, weighed and the radioactivity was determined with a γ-counter counter (such as Wizard^22470, Perkin Elmer). The data were expressed as the % injected dose/gram (% ID/g).
Radio-labeled (Pb-212) DARPin conjugates were then injected at 0.01 mg/kg (10 μCi DARPin conjugates) into the tail vein of R2G2 mice (females) xenografted subcutaneously (at age of about 7 weeks) with NCI-H82 cells (5 million cells, growth factor reduced Matrigel) and bearing tumors (5-10 mm in diameter). Biodistribution was monitored at 4 h and 24h post-injection. Mice were euthanized by CO2 inhalation and cervical dislocation. Kidneys and tumor were extracted, weighed and the radioactivity was determined with a γ-counter counter (such as Wizard^22470, Perkin Elmer). The data were expressed as the % injected dose/gram (% ID/g) and the tumor to kidney (T:K) ratio was determined.
Radio-labelled (Pb-212) DARPin conjugates were then injected at 0.01 mg/kg (10 μCi DARPin conjugates) (i) into the tail vein of R2G2 mice (females) xenografted subcutaneously (at age of about 7 weeks) with NCI-H82 cells (5 million cells, growth factor reduced Matrigel) and bearing tumors (5-10 mm in diameter), and (ii) into the tail vein of athymic nude mice (females) xenografted subcutaneously (at age of about 7 weeks) with hDLL3-MC38 cells (5 million cells, growth factor reduced Matrigel) and bearing tumors (5-10 mm in diameter). Biodistribution was monitored at 4 h and 24h post-injection. Mice were euthanized by CO2 inhalation and cervical dislocation. Blood, bladder, small intestine, colon, spleen, kidneys, liver, lung, heart, tail and tumor were extracted, weighed and the radioactivity was determined with a γ-counter (such as Wizard^22470, Perkin Elmer). The data were expressed as the % injected dose/gram (% ID/g).

[2] = system: NCI-H82 tumors; experiment: Efficacy (tumor growth) in NCI-H82 tumor model; assay type: in vivo, mouse; conditions: Dunnett's multiple comparisons test, tumor volume in mm^3, NCI-H82, R2G2 mice
Description: To determine the efficacy of radio-labelled (Pb-212) DARPin (MAM279) conjugate in inhibiting the growth of tumors that express DLL3, different dose regimens (single or repeated dose) of the conjugate were tested in a relevant mouse tumor model (NCI-H82).
Animals were under observation daily and 3× per week tumors were measured by caliper. Animals were sacrificed when tumors reached 1500 to 2000 mm^3 or if termination criteria were met. The data were expressed as average+/−SEM of tumor volume in mm^3.
To determine the efficacy of more frequent repeat-dosing of radio-labelled (Pb-212) DARPin (MAM279) conjugate in inhibiting the growth of tumors that express DLL3, a weekly repeat-dosing regimen of the conjugate was tested in a relevant mouse tumor model (NCI-H82).
Corresponding injections of buffer only were done as control. The first weekly injection of radio-labeled molecules was done 14 days after xenografting the NCI-H82 cells. Animals were under observation daily and 3× per week tumors were measured by caliper. Animals were sacrificed when tumors reached 1500 to 2000 mm^3 or if termination criteria were met. The data were expressed as average+/−SEM of tumor volume in mm^3. Results are shown in FIGS. 20A to 20D and Table 23.

B1: MAM120: Ankyrin repeat domain specific for DLL3 (SEQ ID NO: 4); single domain (1D) DARPin (protein)
chain: DLGTKLLSAAADGQDDEVRELLQAGADVNAKDLFGYTPLHLAAWRGHLEIVEVLLEAGADVNAKDAAGLTPLHLAAWFGHLEIVEVLLEAGADVNAQDVQGVTPADLAAKEGHEDIAEVLQQAA
modifications: Ankyrin repeat domain specific for DLL3 (MAM120)
Blood % ID/g ([1]; 4 h): 0.1 % ID/g | Kidneys % ID/g ([1]; 4 h): 65.5 % ID/g | Tumors % ID/g ([1]; 4 h): 2.6 % ID/g | Blood % ID/g ([1]; 24 h): 0.1 % ID/g | Kidneys % ID/g ([1]; 24 h): 47.3 % ID/g | Tumors % ID/g ([1]; 24 h): 2.9 % ID/g

B2: Rova conjugate: Rova antibody conjugated with chelator (DOTAM) and labeled with Pb-212, used as control molecule (conjugate, chains of the INN, looked up)
VH: QVQLVQSGAEVKKPGASVKVSCKASGYTFTNYGMNWVRQAPGQGLEWMGWINTYTGEPTYADDFKGRVTMTTDTSTSTAYMELRSLRSDDTAVYYCARIGDSSPSDYWGQGTLVTVSS
VL: EIVMTQSPATLSVSPGERATLSCKASQSVSNDVVWYQQKPGQAPRLLIYYASNRYTGIPARFSGSGSGTEFTLTISSLQSEDFAVYYCQQDYTSPWTFGQGTKLEIK
modifications: DOTAM chelator, 212Pb radiolabel
notes: Rova antibody conjugated with chelator (DOTAM) and labeled with Pb-212, used as control molecule
Mean Diff. ([2]; Buffer vs. conjugate (1 × 10μCi)): 119.6 | Mean Diff. ([2]; Buffer vs. conjugate (4 × 10μCi, injections 2 weeks apart)): 256.3

B3: neg. control: negative control DARPin (SEQ ID NO: 26), DLL3-specific domain replaced with non-binding domain, DOTAM-conjugated, Pb-212 labelled (conjugate)
chain: GSDLGKKLLEAARAGQDDEVRELLKAGADVNAKDYFSHTPLHLAARNGHLKIVEVLLKAGADVNAKDFAGKTPLHLAADAGHLEIVEVLLKAGADVNAQDIFGKTPADIAADAGHEDIAEVLQKAAGSPTPTPTTPTPTPTTPTPTPTGSDLGKKLLEAARAGQDDEVRELLKAGADVNAKDKDGYTPLHLAAREGHLEIVEVLLKAGADVNAKDKDGYTPLHLAAREGHLEIVEVLLKAGADVNAQDKSGKTPADLAADAGHEDIAEVLQKAAGSGSC
modifications: DOTAM conjugate, Pb-212 label; Ankyrin repeat protein (control)
Mean Diff. ([2]; Buffer only vs. (4 × 10μCi, 1 wk)): −64.44
